Conditions in all cases: tags: R&D Systems; chain copies: 2
The target of data set [1] is T1, NGF (nerve growth factor) (Homo sapiens, UniProt P01138 P01138:122-241). The experiment in a line: SPR; inhibits NGF-receptor binding; inhibits neurite outgrowth at 10 nM. Background: Surface plasmon resonance follows binding to a sensor surface in real time, without labels.
Data set [2] concerns the target T2, NT-3 (neurotrophin-3) (Homo sapiens, UniProt P20783 P20783:139-257).
T2 sequence: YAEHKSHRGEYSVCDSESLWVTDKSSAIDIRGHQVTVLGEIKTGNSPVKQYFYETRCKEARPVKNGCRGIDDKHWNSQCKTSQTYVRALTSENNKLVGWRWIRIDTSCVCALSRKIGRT
The experiment in a line: cell_activity; TF-1 TrkC/p75 cells. The text has this: (§1) Using TF-1 cells, whether NGF aptamer inhibits BDNF, NT-3, NT-4 was examined. Human receptor genes (TrkB, TrkC, p75) for respective neurotrophic factors were introduced into TF-1 cells (ATCC Number: CRL-2003), which is a human erythroleukemic cell line, by using a retrovirus vector to give cells that highly express these receptors stably. TF-1 cells introduced with TrkB and p75 were used for the evaluation of inhibitory activity against BDNF, TF-1 cells introduced with TrkC and p75 were used for the evaluation against NT-3, and TF-1 cells introduced with TrkB alone were used for the evaluation against NT-4. These cells were suspended in an RPMI-1640 medium containing 20% fetal bovine serum, and seeded in a white 96 well flat-bottom plate at 1000 cells (50 μL) per well. Thereto was added a mixed solution 50 μL of human BDNF (final concentration 0.074 nM) or NT-3 (final concentration 0.074 nM) or NT-4 (final concentration 0.071 nM) and the aptamer (final concentration 1 μM-0.01 nM), which had been pre-reacted at room temperature for 30 min in a serum-free RPMI-1640 medium, 3 days later, 100 μL of CellTiter-Glo reagent for CellTiter-Glo Luminescent Cell Viability Assay (manufactured by Promega) was added to each well, chemiluminescence was measured by a microplate reader. With the amount of luminescence per well obtained by the addition of BDNF or NT-3 or NT-4 alone and culture of the cells for 3 days as inhibitory activity 0%, and that of the well obtained by culture for 3 days without addition of BDNF or NT-3 or NT-4 as inhibitory activity 100%, the inhibitory activity of the aptamer was calculated from the amount of luminescence per well obtained by culturing with the addition of BDNF or NT-3 or NT-4 and the aptamer in mixture. When the inhibitory activity was 0 or below, ‘0%’ is indicated. The 50% inhibitory concentration (IC₅₀) was determined from the concentrations at two, above and below points sandwiching the 50% inhibitory activity. An IC₅₀ value indicated as “>X” means that the inhibitory activity was not more than 50% when the indicated concentration X was the maximum measured concentration. N.D. means not measured.

Data set [3] deals with T3, NT-4 (neurotrophin-4) (Homo sapiens, UniProt P34130 P34130:81-210).
T3 sequence: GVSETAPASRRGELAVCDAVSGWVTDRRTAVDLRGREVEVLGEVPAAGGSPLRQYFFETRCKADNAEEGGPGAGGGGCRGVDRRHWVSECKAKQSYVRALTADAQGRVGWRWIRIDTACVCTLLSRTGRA
Description: cell_activity; TF-1 TrkB cells. The text has this:
Using TF-1 cells, whether NGF aptamer inhibits BDNF, NT-3, NT-4 was examined. Human receptor genes (TrkB, TrkC, p75) for respective neurotrophic factors were introduced into TF-1 cells (ATCC Number: CRL-2003), which is a human erythroleukemic cell line, by using a retrovirus vector to give cells that highly express these receptors stably. TF-1 cells introduced with TrkB and p75 were used for the evaluation of inhibitory activity against BDNF, TF-1 cells introduced with TrkC and p75 were used for the evaluation against NT-3, and TF-1 cells introduced with TrkB alone were used for the evaluation against NT-4. These cells were suspended in an RPMI-1640 medium containing 20% fetal bovine serum, and seeded in a white 96 well flat-bottom plate at 1000 cells (50 μL) per well. Thereto was added a mixed solution 50 μL of human BDNF (final concentration 0.074 nM) or NT-3 (final concentration 0.074 nM) or NT-4 (final concentration 0.071 nM) and the aptamer (final concentration 1 μM-0.01 nM), which had been pre-reacted at room temperature for 30 min in a serum-free RPMI-1640 medium, 3 days later, 100 μL of CellTiter-Glo reagent for CellTiter-Glo Luminescent Cell Viability Assay (manufactured by Promega) was added to each well, chemiluminescence was measured by a microplate reader. With the amount of luminescence per well obtained by the addition of BDNF or NT-3 or NT-4 alone and culture of the cells for 3 days as inhibitory activity 0%, and that of the well obtained by culture for 3 days without addition of BDNF or NT-3 or NT-4 as inhibitory activity 100%, the inhibitory activity of the aptamer was calculated from the amount of luminescence per well obtained by culturing with the addition of BDNF or NT-3 or NT-4 and the aptamer in mixture. […] The 50% inhibitory concentration (IC₅₀) was determined from the concentrations at two, above and below points sandwiching the 50% inhibitory activity. An IC₅₀ value indicated as “>X” means that the inhibitory activity was not more than 50% when the indicated concentration X was the maximum measured concentration. N.D. means not measured.

The target in data set [4] is T1, NGF (nerve growth factor). The experiment in a line: cell_activity; TF-1 cell proliferation inhibition. The protocol:
Two NGF receptor (human TrkA and human p75) genes were introduced into TF-1 cells (ATCC Number: CRL-2003), which is a human erythroleukemic cell line, by using a retrovirus vector to give cells that highly express two receptors simultaneously and stably. The cells were suspended in an RPMI-1640 medium containing 20% fetal bovine serum, and seeded in a white 96 well flat-bottom plate at 1000 cells (50 μL) per well. […] With the amount of luminescence per well obtained by the addition of NGF alone and culture of the cells for 3 days as inhibitory activity 0%, and that of the well obtained by NGF free culture for 3 days as inhibitory activity 100%, the inhibitory activity of the aptamer was calculated from the amount of luminescence per well obtained by culturing with the addition of NGF and the aptamer in mixture.

Data set [5] concerns the target T1, NGF (nerve growth factor). The experiment in a line: cell_activity; neurite; TF-1 0.022.
Data set [6] concerns the target T1, NGF (nerve growth factor). The experiment in a line: cell_activity; neurite outgrowth inhibition. The protocol:
The cells (2500 cells per well) were cultured for one day in an RPMI-1640 medium containing 2.5% horse serum and 1.25% fetal bovine serum in a 96 well flat-bottom plate coated with collagen type IV. […] Two days later, the cytoplasm and nuclei were stained using Cellomics Neurite Outgrowth Kit (manufactured by Thermo Scientific), and neurite length per cell was measured by Cellomics ArrayScan VTI (manufactured by Thermo Scientific). With the neurite length per cell obtained by the addition of NGF alone as inhibitory activity 0%, and that of the cell obtained by NGF free culture for 2 days as inhibitory activity 100%, the inhibitory activity of the aptamer was calculated from the neurite length per cell obtained by culturing with the addition of NGF and the aptamer in mixture.

The target of data set [7] is T1, NGF (nerve growth factor). The experiment in a line: SPR; binding maintained on shortening.
In data set [8] the target is T1, NGF (nerve growth factor). Description: cell_activity; neurite; TF-1 <0.03.
Data set [9] deals with T2, NT-3 (neurotrophin-3). Description: cell_activity; TF-1.
Text: as §1

Data set [10] concerns the target T3, NT-4 (neurotrophin-4). Description: cell_activity; TF-1.
Text: as §1

For 11 molecules, binding result and IC50 results are on record in patent US20140235701, “NGF APTAMER AND APPLICATION THEREOF” (RIBOMIC INC., published 2014).

T1 sequence (P01138 122-241, one chain of several): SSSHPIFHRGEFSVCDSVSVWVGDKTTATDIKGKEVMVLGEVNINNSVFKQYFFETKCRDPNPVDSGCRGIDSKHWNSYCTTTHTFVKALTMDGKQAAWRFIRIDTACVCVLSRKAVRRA

B1: SEQ ID NO: 6 (ssRNA)
RNA: GGGAGAACUUCGACCAGAAGUGCAAUACUUUCGCGGCAUAUGUGCAAACCUUGCCACGACUAUGUGCGCAUACAUGGAUCCUC
modifications: 2'-F C and U; 2'-OH G; 2'-H (deoxy) A
Take B1: the binding result in data set [1] is “binds”.

B2: SEQ ID NO: 8 (ssRNA)
RNA: GGGAGAACUUCGACCAGAAGAUCCACUGGUACUACGUGACCCCGCAUAGGCAAUCCUGCUUAUGUGCGCAUACAUGGAUCCUC
modifications: 2'-F C and U; 2'-OH G; 2'-H (deoxy) A
For B2, in data set [1], the binding result is “binds”.

B3: SEQ ID NO: 82(16) (ssRNA)
RNA: GGGUCCUGGAUAAGAGUUUCCGUCUCGUAUCCUGUUACCC
modifications: 2'-F C and U except C38; 2'-OMe G1-3,G9,G14,G16,G22,G27,C38; 2'-OH G8,G34; 2'-H A; idT 5' and 3'
Regarding B3, the IC50 (as a rule, the point on the concentration scale where inhibition reaches its midpoint) with NT-3 (neurotrophin-3) [2] is 34.4 nM; with NT-4 (neurotrophin-4) [3], < 3 nM; in data set [4], 0.026 nM.

For the molecule GGGUCCUGGAUAAGAGUUUCCGUCUCGUAUCCUGUUACCC (ssRNA, as 82(25) except 2'-OMe A29) [SEQ ID NO: 82(46)], it took 0.033 nM to reach half-maximal inhibition in data set [5] (IC50).

B4: SEQ ID NO: 82(25) (ssRNA)
RNA: GGGUCCUGGAUAAGAGUUUCCGUCUCGUAUCCUGUUACCC
modifications: 2'-F C5,U7,U17,U18,U19,C20,C24,U25,U33,U36; 2'-OH G8,G34; 2'-H A; 2'-OMe all other; idT 5' and 3'
B4: the IC50 with NT-3 (neurotrophin-3) [2] is 2.15 nM; with NT-4 (neurotrophin-4) [3] it was 40.4 nM; in data set [6], < 0.1 nM; in data set [4], 0.085 nM. In the case of GGGUCCUGCCUAAGAGUUUCCGUCUCGUAGGCUGUUACCC (ssRNA, 2'-F C and U; 2'-OH G; 2'-H (deoxy) A) [SEQ ID NO: 91], the binding result in data set [7] was “binds”. The molecule GGGUCCUGGAUAAGAGUUUCCGUCUCGUAUCCUGUUACCC (ssRNA, as 82(25) except 2'-OMe A37) [SEQ ID NO: 82(47)] yielded an IC50 in data set [5] of 0.046 nM. In turn, GGGUCCUGGUUAAGAGUUUCCGUCUCGUAACCUGUUACCC (ssRNA, 2'-OMe G (G8,G34 2'-OH), dA, 2'-F C/U; 5',3' idT) [SEQ ID NO: 79(1)] came in with an IC50 in data set [8] of 0.289 nM.

B5: SEQ ID NO: 82(55) (ssRNA)
RNA: GGGUCCUGGAUAAGAGUUUCCGUCUCGUAUCCUGUUACCC
modifications: 2'-F C5,U7,U17,U18,U19,C20,C24,U25,U33,U36; 2'-OH G8,G34; 2'-H A; 2'-OMe all other; 5' PEG80TS4; 3' idT
Turning to B5, the IC50 with NT-3 (neurotrophin-3) [2] came out at 0.97 nM; in data set [6], 0.101 nM; in data set [4] it was 0.039 nM. For the molecule GGGUCCUGCGUAAGAGUUUCCGUCUCGUAUGCUGUUACCC (ssRNA, 2'-F C and U; 2'-OH G; 2'-H (deoxy) A) [SEQ ID NO: 90], in data set [7], the binding result was “binds”.

GGGUCCUGGAUAAGAGUUUCCGUCUCGUAUCCTGUUACCC (ssRNA, as 82(1) except dT33) [SEQ ID NO: 158]: the IC50 with NT-3 (neurotrophin-3) [9] was < 30 nM; with NT-4 (neurotrophin-4) [10], < 3 nM; in data set [8], 0.1 nM.
